What was measured:
GLP-1 receptor = test: cell-based or functional assay
GLP-2 receptor = test: cell-based or functional assay
[1] = Histological analysis of pancreatic tissue of db/db mice; type: in vivo; details: pancreas after 12 weeks of dosing
Source text: Subsequently, after completion of the above experiment, the present inventors sacrificed the experimental animals and performed histological analysis of pancreatic tissues. Specifically, after euthanizing the animals under general anesthesia at the end of the animal study, the pancreas was excised, fixed in 4% paraformaldehyde, embedded in paraffin, sectioned transversely into 5 µm slices using a microtome, and then subjected to staining either with insulin alone, double staining with insulin and glucagon, or double staining with insulin and Ki-67. All double staining was carried out using fluorescent-labeled antibodies, followed by imaging with a confocal laser microscope.

[2] = Anti-diabetic effect in db/db mice (blood glucose, HbA1c, insulin, HOMA-IR, HOMA-β); type: in vivo; details: 15 nmol/kg s.c. every three days for 12 weeks
Procedure: Specifically, 14-week-old male db/db mice (Janvier Labs, France) were subcutaneously injected every three days for 12 weeks with designated doses of Semaglutide, Tirzepatide, or the bispecific fusion protein MG12-8 according to one embodiment of the present invention. Subsequently, non-fasting blood glucose levels were measured at 25-day intervals (on days 25, 50, and 75 of the experiment), and HbA1c levels were measured monthly up to three months. Additionally, at the end of the experiment, fasting blood glucose and serum insulin concentrations were determined, and HOMA-IR and HOMA-β scores were calculated.

[3] = Intestinal leakage (serum FITC-Dextran fluorescence) in MASH model (CD-HFD + DSS); type: in vivo, C57BL/6J mice; details: 55 nmol/kg twice daily s.c.
Source text: (§1) Subsequently, the present inventors investigated the weight reduction and regulation of intestinal leakage in a metabolic dysfunction-associated steatohepatitis (MASH) animal model with intestinal leakage, using Liraglutide as a comparative control and MG12-8 according to one embodiment of the present invention. Specifically, twenty-week-old male C57BL/6J mice were obtained, and overweight was induced by feeding a choline-deficient high-fat diet (CD-HFD). In addition, intestinal leakage was induced by cyclically administering dextran sulfate sodium (DSS) at a low concentration of 1% for 7 days followed by 10 days of regular drinking water. After two weeks from the initiation of CD-HFD feeding, Liraglutide and MG12-8 were subcutaneously administered at their respective prescribed dosages and dosing intervals. Two weeks after the first administration, body weight was measured (FIG. 4a). To assess intestinal leakage, a fluorescein isothiocyanate (FITC)-Dextran (4 kDa) solution was administered orally 4 hours before sacrifice, after which the mice were fasted. The amount of FITC-Dextran translocated into the blood was then evaluated by measuring fluorescence intensity in serum.

[4] = Body weight in MASH model with intestinal leakage (CD-HFD + DSS); type: in vivo, C57BL/6J mice; details: 55 nmol/kg twice daily s.c., two weeks after first administration
Source text: as §1

| GLP-1 activity (Set1), EC50 (nM); cAMP bioluminescence in GLP-1R-expressing CHO-K1 cells (GLP-1 receptor) | GLP-1 activity (Set1), Relative activity compared with hGLP-1 peptide (%) (GLP-1 receptor) | GLP-1 activity (Set2), EC50 (nM); cAMP bioluminescence in GLP-1R-expressing CHO-K1 cells (GLP-1 receptor) | GLP-1 activity (Set2), Relative activity compared with hGLP-1 peptide (%) (GLP-1 receptor) | GLP-2 activity, EC50 (nM); cAMP bioluminescence in GLP-2R-expressing CHO-K1 cells (GLP-2 receptor) | GLP-2 activity, Relative activity compared with hGLP-2 peptide (%) (GLP-2 receptor) | Molecule | other results |
| --- | --- | --- | --- | --- | --- | --- | --- |
| 0.69 nM | 100% | 0.89 nM | 100% | – | – | wild-type GLP-1 (human GLP-1 peptide) (from UniProt P01275 21-180) | – |
| – | – | – | – | 1.18 nM | – | wild-type GLP-2 (human GLP-2 peptide) | – |
| – | – | – | – | – | – | CC[C@H](C)[C@H](NC(=O)[C@H](CC(C)C)NC(=O)[C@H](Cc1c[nH]c2ccccc12)NC(=O)[C@H](CCC(N)=O)NC(=O)[C@@H](NC(=O)[C@H](Cc1ccccc1)NC(=O)[C@H](C)NC(=O)[C@H](CCCCNC(=O)COCCOCCNC(=O)COCCOCCNC(=O)CC[C@H](NC(=O)CCCCCCCCCCCCCCCCCCC(=O)O)C(=O)O)NC(=O)[C@H](CCC(N)=O)NC(=O)[C@H](C)NC(=O)[C@@H](NC(=O)[C@H](CCCCN)NC(=O)[C@H](CC(=O)O)NC(=O)[C@H](CC(C)C)NC(=O)C(C)(C)NC(=O)[C@@H](NC(=O)[C@H](CO)NC(=O)[C@H](Cc1ccc(O)cc1)NC(=O)[C@H](CC(=O)O)NC(=O)[C@H](CO)NC(=O)[C@@H](NC(=O)[C@H](Cc1ccccc1)NC(=O)[C@@H](NC(=O)CNC(=O)[C@H](CCC(=O)O)NC(=O)C(C)(C)NC(=O)[C@@H](N)Cc1ccc(O)cc1)[C@@H](C)O)[C@@H](C)O)[C@@H](C)CC)[C@@H](C)CC)C(C)C)C(=O)N[C@@H](C)C(=O)NCC(=O)NCC(=O)N1CCC[C@H]1C(=O)N[C@@H](CO)C(=O)N[C@@H](CO)C(=O)NCC(=O)N[C@@H](C)C(=O)N1CCC[C@H]1C(=O)N1CCC[C@H]1C(=O)N1CCC[C@H]1C(=O)N[C@@H](CO)C(N)=O [Tirzepatide] | number of Ki-67-positive cells per 10,000 µm^2 [1]: showed no improvement compared with the control group; insulin resistance index (HOMA-IR) [2]: > 40 |
| – | – | – | – | – | – | Liraglutide (HAEGTFTSDVSSYLEGQAAKEFIAWLVRGRG; REGION 1..31: note = Liraglutide) [GLP-1 receptor agonist marketed by Novo Nordisk as Victoza for the treatment of type 2 diabetes and obesity] | intestinal leakage suppression activity (serum FITC-Dextran) [3]: did not exhibit intestinal leakage suppression activity relative to the control; body weight compared with vehicle [4]: reduced body weights compared with the vehicle-administered group |
| 1.57 nM | 44% | 1.12 nM | 79% | 2.42 nM | 49% | MG12-6 (Fc fusion) chain 1: HGEGTFTSDVSSYLEGQAAKEFIAWLVKGGPSSGAPPPSGGGGSGGGGSGGGGSEKEKEEQEERTHTCPPCPSHTQPLGVFLFPPKPKDQLMISRTPEVTCVVVDVSQEDPEVQFNWYVDGVEVHNAKTKPREEQFNSTYRVVSVLTVLHQDWLNGKEYKCKVSNKGLPSSIEKTISKAKGQPREPQVYTLPPCQEEMTKNQVSLWCLVKGFYPSDIAVEWESNGQPENNYKTTPPVLDSDGSFFLYSRLTVDKSRWQEGNVFSCSVLHEALHNHYTQKSLSLSLGK chain 2: HGDGSFSDEMNTILDNLAARDFINWLIQTKITDGGGGGSGGGGSGGGGSAKNTTAPATTRNTTRGGEEKKKEKEKEEQEERTHTCPPCPSHTQPLGVFLFPPKPKDQLMISRTPEVTCVVVDVSQEDPEVQFNWYVDGVEVHNAKTKPREEQFNSTYRVVSVLTVLHQDWLNGKEYKCKVSNKGLPSSIEKTISKAKGQPREPQVCTLPPSQEEMTKNQVSLSCAVKGFYPSDIAVEWESNGQPENNYKTTPPVLDSDGSFFLVSRLTVDKSRWQEGNVFSCSVLHEALHNHYTQKSLSLSLGK | – |
| 0.35 nM | 194% | 0.57 nM | 156% | 50.8 nM | 2% | MG12-7 (Fc fusion) chain 1: HGEGTFTSDVSSYLEGQAAKEFIAWLVKGGPSSGAPPPSGGGGSGGGGSGGGGSAKNTTAPATTRNTTRGGEEKKKEKEKEEQEERTHTCPPCPSHTQPLGVFLFPPKPKDQLMISRTPEVTCVVVDVSQEDPEVQFNWYVDGVEVHNAKTKPREEQFNSTYRVVSVLTVLHQDWLNGKEYKCKVSNKGLPSSIEKTISKAKGQPREPQVYTLPPCQEEMTKNQVSLWCLVKGFYPSDIAVEWESNGQPENNYKTTPPVLDSDGSFFLYSRLTVDKSRWQEGNVFSCSVLHEALHNHYTQKSLSLSLGK chain 2: HGDGSFSDEMNTILDGQAARDFINWLIQTKITDGGGGSGGGGSGGGGSEPKSSDKTHTCPPCPSHTQPLGVFLFPPKPKDQLMISRTPEVTCVVVDVSQEDPEVQFNWYVDGVEVHNAKTKPREEQFNSTYRVVSVLTVLHQDWLNGKEYKCKVSNKGLPSSIEKTISKAKGQPREPQVCTLPPSQEEMTKNQVSLSCAVKGFYPSDIAVEWESNGQPENNYKTTPPVLDSDGSFFLVSRLTVDKSRWQEGNVFSCSVLHEALHNHYTQKSLSLSLGK | – |
| 0.81 nM | 85% | 0.71 nM | 125% | 19 nM | 6% | MG12-8 (Fc fusion) chain 1: HGEGTFTSDVSSYLEGQAAKEFIAWLVKGGPSSGAPPPSGGGGSGGGGSGGGGSGGGGSGGGGSGGGGSHGEGTFTSDVSSYLEGQAAKEFIAWLVKGGPSSGAPPPSGGGGSGGGGSGGGGSEPKSSDKTHTCPPCPSHTQPLGVFLFPPKPKDQLMISRTPEVTCVVVDVSQEDPEVQFNWYVDGVEVHNAKTKPREEQFNSTYRVVSVLTVLHQDWLNGKEYKCKVSNKGLPSSIEKTISKAKGQPREPQVYTLPPCQEEMTKNQVSLWCLVKGFYPSDIAVEWESNGQPENNYKTTPPVLDSDGSFFLYSRLTVDKSRWQEGNVFSCSVLHEALHNHYTQKSLSLSLGK chain 2: HGDGSFSDEMNTILDGQAARDFINWLIQTKITDGGGGSGGGGSGGGGSEPKSSDKTHTCPPCPSHTQPLGVFLFPPKPKDQLMISRTPEVTCVVVDVSQEDPEVQFNWYVDGVEVHNAKTKPREEQFNSTYRVVSVLTVLHQDWLNGKEYKCKVSNKGLPSSIEKTISKAKGQPREPQVCTLPPSQEEMTKNQVSLSCAVKGFYPSDIAVEWESNGQPENNYKTTPPVLDSDGSFFLVSRLTVDKSRWQEGNVFSCSVLHEALHNHYTQKSLSLSLGK | relative GLP-1 activity, MG12-8 Sample #1; cAMP bioluminescence in HEK-GLP-1R cells (GLP-1 receptor): 100%; relative GLP-1 activity, MG12-8 Sample #2; cAMP bioluminescence in HEK-GLP-1R cells (GLP-1 receptor): 200%; relative GLP-1 activity, MG12-8 Sample #3; cAMP bioluminescence in HEK-GLP-1R cells (GLP-1 receptor): 300%; relative GLP-1 activity, MG12-8 Sample #4; cAMP bioluminescence in HEK-GLP-1R cells (GLP-1 receptor): 400% |

From EP4733314A1, “NOVEL BISPECIFIC FUSION PROTEIN AND USE THEREOF” (Slbigen Inc., priority 2023, dated 2024)
